Data as given in patent US20250179210A1, “ANTI-CEACAM5 ANTIBODIES AND CONJUGATES AND USES THEREOF” (Merck Patent GmbH, priority 2022, published 2025).

T1: CEACAM5 in cancer cell line lysates (Homo sapiens, UniProt P06731)
T1 construct: endogenous in cells; host or cells: CEACAM5-positive and -negative cancer cell lines (RIPA lysates)
T1 sequence (P06731 35-685): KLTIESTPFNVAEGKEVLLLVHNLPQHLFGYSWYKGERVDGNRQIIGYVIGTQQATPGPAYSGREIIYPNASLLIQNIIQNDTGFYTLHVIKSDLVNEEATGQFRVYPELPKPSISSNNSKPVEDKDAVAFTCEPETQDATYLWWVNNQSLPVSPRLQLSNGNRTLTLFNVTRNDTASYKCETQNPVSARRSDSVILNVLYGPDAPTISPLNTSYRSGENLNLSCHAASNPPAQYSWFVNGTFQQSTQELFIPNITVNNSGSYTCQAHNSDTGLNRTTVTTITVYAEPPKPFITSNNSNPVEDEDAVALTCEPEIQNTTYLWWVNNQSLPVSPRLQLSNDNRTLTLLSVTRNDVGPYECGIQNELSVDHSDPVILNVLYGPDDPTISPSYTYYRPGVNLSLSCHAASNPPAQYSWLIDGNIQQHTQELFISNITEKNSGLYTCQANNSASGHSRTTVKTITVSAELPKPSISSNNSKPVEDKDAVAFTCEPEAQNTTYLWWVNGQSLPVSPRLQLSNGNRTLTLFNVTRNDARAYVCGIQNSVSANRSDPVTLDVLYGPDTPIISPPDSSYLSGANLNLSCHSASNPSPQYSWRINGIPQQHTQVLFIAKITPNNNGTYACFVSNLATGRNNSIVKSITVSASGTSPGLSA

T2: CEACAM-5 in FFPE cancer cell lines and human tumor tissues (Homo sapiens, UniProt P06731)
T2 construct: formaldehyde fixed paraffin embedded (FFPE) cancer cell line microarrays (CMAs) and human tumor tissues; from tissue; host or cells: FFPE cancer cell line microarrays and human tumor tissues
T2 sequence (P06731 35-676): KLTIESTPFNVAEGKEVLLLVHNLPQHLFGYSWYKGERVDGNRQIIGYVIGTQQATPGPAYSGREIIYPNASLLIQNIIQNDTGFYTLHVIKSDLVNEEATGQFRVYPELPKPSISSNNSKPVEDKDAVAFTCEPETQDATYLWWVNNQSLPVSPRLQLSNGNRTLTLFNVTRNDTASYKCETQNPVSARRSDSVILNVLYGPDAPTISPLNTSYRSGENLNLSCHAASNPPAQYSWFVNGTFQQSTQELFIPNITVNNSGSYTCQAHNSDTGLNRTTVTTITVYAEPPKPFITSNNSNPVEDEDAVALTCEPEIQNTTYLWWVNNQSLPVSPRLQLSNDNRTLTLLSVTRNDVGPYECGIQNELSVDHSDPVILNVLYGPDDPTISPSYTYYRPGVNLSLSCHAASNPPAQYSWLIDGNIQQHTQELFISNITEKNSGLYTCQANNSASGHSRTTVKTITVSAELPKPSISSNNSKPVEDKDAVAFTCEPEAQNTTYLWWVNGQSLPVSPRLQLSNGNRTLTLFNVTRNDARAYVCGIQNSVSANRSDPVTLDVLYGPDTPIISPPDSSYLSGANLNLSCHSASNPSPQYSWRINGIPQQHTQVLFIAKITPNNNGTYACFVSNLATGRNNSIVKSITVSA

B1: Fab of mAb1: Fab format of antibody mAb1 (antibody, V domains shown)
VH: EVQLQESGPGLVKPSQTLSLTCTVSDGSVSRGGYYLTWIRQHPGKGLEWIGYIYYSGSTYFNPSLRSRVTMSVDTSKNQFSLKLSSVTAADTAVYYCARGIAVAPFDYWGQGTLVTVSS
VL: EIVLTQSPATLSVSPGERATLSCRTSQSVRSNLAWYQQKPGQAPRLLIYAASTRATGIPARFSGSGSGTEFTLTISSLQSEDFAVYYCQQYTNWPFTFGPGTKVDIK
B2: rb8G4 (antibody)
heavy: EVQLQESGPGLVKPSQTLSLTCTVSDGSVSRGGYYLTWIRQHPGKGLEWIGYIYYSGSTYFNPSLRSRVTMSVDTSKNQFSLKLSSVTAADTAVYYCARGIAVAPFDYWGQGTLVTVSSQPKAPSVFPLAPCCGDTPSSTVTLGCLVKGYLPEPVTVTWNSGTLTNGVRTFPSVRQSSGLYSLSSVVSVTSSSQPVTCNVAHPATNTKVDKTVAPSTCSKPTCPPPELLGGPSVFIFPPKPKDTLMISRTPEVTCVVVDVSEDDPEVQFTWYINNEQVRTARPPLREQQFNSTIRVVSTLPIAHEDWLRGKEFKCKVHNKALPAPIEKTISKARGQPLEPKVYTMGPPREELSSRSVSLTCMINGFYPSDISVEWEKNGKAEDNYKTTPAVLDSDGSYFLYSKLSVPTSEWQRGDVFTCSVMHEALHNHYTQKSISRSPGK
light: EIVLTQSPATLSVSPGERATLSCRTSQSVRSNLAWYQQKPGQAPRLLIYAASTRATGIPARFSGSGSGTEFTLTISSLQSEDFAVYYCQQYTNWPFTFGPGTKVDIKRDPVAPSVLLFPPSKEELTTGTATIVCVANKFYPSDITVTWKVDGTTQQSGIENSKTPQSPEDNTYSLSSTLSLTSAQYNSHSVYTCEVVQGSASPIVQSFNRGDC

Tests used:
[1] = target: cynomolgus_monkey-CEACAM5; experiment: Binding affinity on Octet Red (Fab format); conditions: biotinylated Macaca fascicularis CEACAM5_ECD-His captured, KD=kd/ka
Text: • To determine the binding affinity of soluble antibody analyte to captured target protein CEACAM5 (human or cynomolgus monkey Macaca fascicularis).

[2] = system: other human CEACAM family members (huCEACAM6, huCEACAM1, huCEACAM3, huCEACAM7, huCEACAM8, huPSG1); experiment: Selectivity ELISA, different CEACAM proteins (Fab); format: binding; conditions: even when using 1000 nM Fab
Text: (§1) Selectivity determination for Fab of mAb1 to human CEACAM5 and other human CEACAM family members was done in ELISA assay. Proteins were coated on 96-well assay plates: huCEACAM5-His6 (R&D Systems #4128-CM), huCEACAM6-His6 (3934-CM R&D Systems and recombinant protein obtained from Syngene), huCEACAM1-His6 (2244-CM R&D Systems), huCEACAM3-His6 (C449 Novoprotein), huCEACAM7-His6 (C926 Novoprotein), huCEACAM8-His6 (C583 Novoprotein), huPSG1-His6 (CC66 Novoprotein), each protein was coating the plate at 12 nM concentration.

BSA = BSA (Bos taurus, UniProt P02769); experiment: Selectivity ELISA, unrelated protein (Fab); format: binding; conditions: all concentrations tested
Text: as §1

A549 = experiment: Flow cytometry binding to cell lines; set-up: species or system human; conditions: 10 μg/mL primary antibody
Description: (§2) Method used: 5E5 to 1E6 cells were used for flow cytometry analyses using a BD FACSCanto II (BD Biosciences) in 5 mL polystyrene tubes. Staining with 10 μg/mL primary antibodies (mAb1, rb8G4, mouse monoclonal Agilent Dako #M7072 clone #IL7) and respective fluorescently labeled secondary antibodies (donkey anti-human IgG Jackson-Dianova #709-116-149; donkey anti-mouse IgG Jackson ImmunoResearch #715-116-150, donkey anti-rabbit IgG Jackson-Dianova #711-116-152) were conducted in 50 μL 1% PBS/BSA for 20 to 30 min at 4° C. Between and after staining steps, cells were washed thrice with 1% PBS/BSA and resuspended in 500 μL 1% PBS/BSA (including 0.2 μg/mL DAPI for live cell gating) for flow cytometry analyses. For data evaluation, FlowJo software (BD Biosciences) was used.

MDA-MB-468 = experiment: Flow cytometry binding to cell lines; set-up: species or system human; conditions: 10 μg/mL primary antibody
Description: as §2

MKN-45 = experiment: Flow cytometry binding to cell lines; set-up: species or system human; conditions: 10 μg/mL primary antibody
Description: as §2

NCI-H441 = experiment: Flow cytometry binding to cell lines; set-up: species or system human; conditions: 10 μg/mL primary antibody
Description: as §2

[3] = target: T1, CEACAM5 in cancer cell line lysates; experiment: Western blot on cancer cell line lysates; format: binding; conditions: CEACAM5-positive and -negative cell line lysates
Description: Method used: Western blots were performed according to standard protocols (Sambrook, J. & Russell, D. W., 2001. Molecular Cloning: A Laboratory Manual, Volume 1, CSHL Press). For SDS-PAGE followed by membrane wet blotting, 15 μg total protein of RIPA cell lysates quantified by BCA kit (Thermo Scientific, #23227) were loaded per lane. Criterion XT 4-12% gels (Bio-Rad, #3450125) using MOPS running buffer (Bio-Rad #1610788) were used in a Criterion electrophoresis cell (Bio-Rad, #1656001). Transfer of proteins was confirmed by Ponceau staining. Membranes were washed before and in-between staining with 0.5 μg/mL to 1 μg/mL primary (mAb1 or rb8G4) and secondary antibodies (anti-human IgG, Jackson ImmunoResearch #109-035-098 or anti-rabbit IgG, CellSignaling #7074) was conducted. Stained membranes were visualized by ECL detection reagent using a Fusion FX imaging system (Vilber).

[4] = target: T2, CEACAM-5 in FFPE cancer cell lines and human tumor tissues; experiment: Immunohistochemistry on FFPE cell lines and human tissues
Description: For the IHC staining with the anti-CEACAM-5 antibody rb8G4, sections of 4 μm from formaldehyde fixed paraffin embedded (FFPE) cancer cell line microarrays (CMAs) and human tumor tissues were mounted on charged slides (SuperFrost Ultra Plus, Thermo Fisher Scientific or TOMO, Matsunami). The staining procedure was performed using a Discovery XT (Roche Diagnostics) staining platform. Following deparaffinization, the sections were heated for epitope retrieval in Tris-EDTA buffer pH 8 (CC1, Roche Diagnostics). The sections were incubated with the primary monoclonal antibody rb8G4 diluted to 0.5 or 0.7 μg/ml in phosphate-buffered saline (PBS) or antibody diluent buffer (DCS). The clone DA1E (rabbit monoclonal IgG, NEB) served as isotype control antibody. The primary antibodies were followed by the HQ anti-rabbit IgG detection kit (Roche Diagnostics). […]
CMAs and the TMA with human organ tissue were stained and scanned with the NanoZoomer (Hamamatsu) with a resolution of 0.46 μm/pixel. […] The scans of the CMAs were analyzed with the image analysis software HALO (Indica Labs, USA). For the determination of the amount of antigen present, positive brown stained area was calculated as percent area of the viable tissue area. Staining (arbitrary units) is calculated as […]

BSA, sequence (P02769 25-607): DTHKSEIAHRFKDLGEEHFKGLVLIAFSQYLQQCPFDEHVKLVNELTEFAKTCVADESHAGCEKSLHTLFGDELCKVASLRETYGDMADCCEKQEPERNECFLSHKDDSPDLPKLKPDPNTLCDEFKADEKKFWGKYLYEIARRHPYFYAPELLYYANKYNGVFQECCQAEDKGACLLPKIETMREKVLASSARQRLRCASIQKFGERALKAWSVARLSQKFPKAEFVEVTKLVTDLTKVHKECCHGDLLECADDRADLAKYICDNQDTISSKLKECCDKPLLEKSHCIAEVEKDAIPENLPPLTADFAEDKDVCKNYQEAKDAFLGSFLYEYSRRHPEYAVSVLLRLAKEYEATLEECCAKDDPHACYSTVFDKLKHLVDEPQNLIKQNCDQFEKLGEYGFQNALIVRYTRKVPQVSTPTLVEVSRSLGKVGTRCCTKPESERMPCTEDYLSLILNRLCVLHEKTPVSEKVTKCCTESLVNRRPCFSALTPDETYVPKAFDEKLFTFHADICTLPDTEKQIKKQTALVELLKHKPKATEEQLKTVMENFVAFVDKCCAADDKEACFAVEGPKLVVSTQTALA
cynomolgus_monkey-CEACAM5, sequence (as listed by the source): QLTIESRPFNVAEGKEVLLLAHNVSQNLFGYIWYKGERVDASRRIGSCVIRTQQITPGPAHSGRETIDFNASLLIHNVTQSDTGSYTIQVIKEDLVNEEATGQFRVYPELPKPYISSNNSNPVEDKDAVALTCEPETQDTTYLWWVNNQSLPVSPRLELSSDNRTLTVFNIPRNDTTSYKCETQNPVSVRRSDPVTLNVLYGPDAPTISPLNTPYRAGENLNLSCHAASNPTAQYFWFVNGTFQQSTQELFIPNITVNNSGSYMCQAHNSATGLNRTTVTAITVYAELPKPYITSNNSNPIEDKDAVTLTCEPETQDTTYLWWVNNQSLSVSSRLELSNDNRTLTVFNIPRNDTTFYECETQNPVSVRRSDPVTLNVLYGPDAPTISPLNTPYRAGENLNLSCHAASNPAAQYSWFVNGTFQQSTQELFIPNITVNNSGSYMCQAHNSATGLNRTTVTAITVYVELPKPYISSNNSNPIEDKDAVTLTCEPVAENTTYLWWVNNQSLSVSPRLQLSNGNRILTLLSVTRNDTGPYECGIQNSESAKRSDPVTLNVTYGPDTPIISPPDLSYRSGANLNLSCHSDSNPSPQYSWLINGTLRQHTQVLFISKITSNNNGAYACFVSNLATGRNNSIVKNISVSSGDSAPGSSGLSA

Molecule | Kd [1] [nM] | Binding to the other human CEACAM family members [2] | Binding to unrelated protein (BSA) (BSA) | Quotient of MFI of antibody divided by MFI of secondary antibody only control (A549) | Quotient of MFI of antibody divided by MFI of secondary antibody only control (MDA-MB-468) | Quotient of MFI of antibody divided by MFI of secondary antibody only control (MKN-45) | Quotient of MFI of antibody divided by MFI of secondary antibody only control (NCI-H441) | CEACAM5 detection in Western blot [3] | Pearson correlation coefficient r of IHC staining signal with CEACAM5 mRNA expression ([4]; 104 cancer cell lines, CCLE dataset) | IHC staining of human tumor tissue ([4]; colorectal, gastric, esophageal and non-small cell lung cancer)
B1 | 14.1 ± 2.53 | did not bind | did not bind | – | – | – | – | – | – | –
B2 | – | – | – | 1.1 | 1.0 | 36.2 | 3.2 | specific to CEACAM5-positive cell lines | 0.88 | stained positive
